Results taken from paper PMC9316223, “Can Modern Molecular Modeling Methods Help Find the Area of Potential Vulnerability of Flaviviruses?” (International Journal of Molecular Sciences, 2022).

What was measured:
Details in all cases: both partners purified
[1] = target: T1, ZEF1, fragment of ZIKV E protein containing 1-187 aa (Zika virus, strain MR-766 (KX377335.1), UniProt A0A192GPS6); assay: far-Western, overlay or dot blot; dot blot: recombinant proteins (1 µL at 1.5 mg/mL) adsorbed onto nitrocellulose; 10H10 mAb 2 μg/mL in PBS, 0.1% Tween-20, 1% BSA for 10 min; detected with goat anti-mouse IgG conjugated with alkaline phosphatase
T1 construct: envelope protein E of Zika virus strain MR-766 (genome KX377335.1), residues 1-187; numbers count on: the E protein (cut product of the polyprotein); Cloned into pET32 (NcoI/XhoI); the vector may add further linker and tag residues; The UniProt entry recalled is of strain Mr 766 from another GenBank record and may differ in a few residues from KX377335.1; source: E. coli BL21(DE3), purified …

[2] = target: T2, WEF1, fragment of WNV E protein containing 1-186 aa (West Nile virus, strain 956 …, UniProt P06935); assay: as above
T2 construct: envelope protein E of West Nile virus strain 956 (genome NC_001563.2), residues 1-186; numbers count on: the E protein (cut product of the polyprotein); Cloned into pET32 (BamHI/XhoI); the vector may add further linker and tag residues between thioredoxin and the insert; source: E. coli BL21(DE3), purified (lysis buffer with 8 M urea, Ni-IMAC Sepharose)
T2 sequence (P06935 whole entry, looked up, the tested form may be a part): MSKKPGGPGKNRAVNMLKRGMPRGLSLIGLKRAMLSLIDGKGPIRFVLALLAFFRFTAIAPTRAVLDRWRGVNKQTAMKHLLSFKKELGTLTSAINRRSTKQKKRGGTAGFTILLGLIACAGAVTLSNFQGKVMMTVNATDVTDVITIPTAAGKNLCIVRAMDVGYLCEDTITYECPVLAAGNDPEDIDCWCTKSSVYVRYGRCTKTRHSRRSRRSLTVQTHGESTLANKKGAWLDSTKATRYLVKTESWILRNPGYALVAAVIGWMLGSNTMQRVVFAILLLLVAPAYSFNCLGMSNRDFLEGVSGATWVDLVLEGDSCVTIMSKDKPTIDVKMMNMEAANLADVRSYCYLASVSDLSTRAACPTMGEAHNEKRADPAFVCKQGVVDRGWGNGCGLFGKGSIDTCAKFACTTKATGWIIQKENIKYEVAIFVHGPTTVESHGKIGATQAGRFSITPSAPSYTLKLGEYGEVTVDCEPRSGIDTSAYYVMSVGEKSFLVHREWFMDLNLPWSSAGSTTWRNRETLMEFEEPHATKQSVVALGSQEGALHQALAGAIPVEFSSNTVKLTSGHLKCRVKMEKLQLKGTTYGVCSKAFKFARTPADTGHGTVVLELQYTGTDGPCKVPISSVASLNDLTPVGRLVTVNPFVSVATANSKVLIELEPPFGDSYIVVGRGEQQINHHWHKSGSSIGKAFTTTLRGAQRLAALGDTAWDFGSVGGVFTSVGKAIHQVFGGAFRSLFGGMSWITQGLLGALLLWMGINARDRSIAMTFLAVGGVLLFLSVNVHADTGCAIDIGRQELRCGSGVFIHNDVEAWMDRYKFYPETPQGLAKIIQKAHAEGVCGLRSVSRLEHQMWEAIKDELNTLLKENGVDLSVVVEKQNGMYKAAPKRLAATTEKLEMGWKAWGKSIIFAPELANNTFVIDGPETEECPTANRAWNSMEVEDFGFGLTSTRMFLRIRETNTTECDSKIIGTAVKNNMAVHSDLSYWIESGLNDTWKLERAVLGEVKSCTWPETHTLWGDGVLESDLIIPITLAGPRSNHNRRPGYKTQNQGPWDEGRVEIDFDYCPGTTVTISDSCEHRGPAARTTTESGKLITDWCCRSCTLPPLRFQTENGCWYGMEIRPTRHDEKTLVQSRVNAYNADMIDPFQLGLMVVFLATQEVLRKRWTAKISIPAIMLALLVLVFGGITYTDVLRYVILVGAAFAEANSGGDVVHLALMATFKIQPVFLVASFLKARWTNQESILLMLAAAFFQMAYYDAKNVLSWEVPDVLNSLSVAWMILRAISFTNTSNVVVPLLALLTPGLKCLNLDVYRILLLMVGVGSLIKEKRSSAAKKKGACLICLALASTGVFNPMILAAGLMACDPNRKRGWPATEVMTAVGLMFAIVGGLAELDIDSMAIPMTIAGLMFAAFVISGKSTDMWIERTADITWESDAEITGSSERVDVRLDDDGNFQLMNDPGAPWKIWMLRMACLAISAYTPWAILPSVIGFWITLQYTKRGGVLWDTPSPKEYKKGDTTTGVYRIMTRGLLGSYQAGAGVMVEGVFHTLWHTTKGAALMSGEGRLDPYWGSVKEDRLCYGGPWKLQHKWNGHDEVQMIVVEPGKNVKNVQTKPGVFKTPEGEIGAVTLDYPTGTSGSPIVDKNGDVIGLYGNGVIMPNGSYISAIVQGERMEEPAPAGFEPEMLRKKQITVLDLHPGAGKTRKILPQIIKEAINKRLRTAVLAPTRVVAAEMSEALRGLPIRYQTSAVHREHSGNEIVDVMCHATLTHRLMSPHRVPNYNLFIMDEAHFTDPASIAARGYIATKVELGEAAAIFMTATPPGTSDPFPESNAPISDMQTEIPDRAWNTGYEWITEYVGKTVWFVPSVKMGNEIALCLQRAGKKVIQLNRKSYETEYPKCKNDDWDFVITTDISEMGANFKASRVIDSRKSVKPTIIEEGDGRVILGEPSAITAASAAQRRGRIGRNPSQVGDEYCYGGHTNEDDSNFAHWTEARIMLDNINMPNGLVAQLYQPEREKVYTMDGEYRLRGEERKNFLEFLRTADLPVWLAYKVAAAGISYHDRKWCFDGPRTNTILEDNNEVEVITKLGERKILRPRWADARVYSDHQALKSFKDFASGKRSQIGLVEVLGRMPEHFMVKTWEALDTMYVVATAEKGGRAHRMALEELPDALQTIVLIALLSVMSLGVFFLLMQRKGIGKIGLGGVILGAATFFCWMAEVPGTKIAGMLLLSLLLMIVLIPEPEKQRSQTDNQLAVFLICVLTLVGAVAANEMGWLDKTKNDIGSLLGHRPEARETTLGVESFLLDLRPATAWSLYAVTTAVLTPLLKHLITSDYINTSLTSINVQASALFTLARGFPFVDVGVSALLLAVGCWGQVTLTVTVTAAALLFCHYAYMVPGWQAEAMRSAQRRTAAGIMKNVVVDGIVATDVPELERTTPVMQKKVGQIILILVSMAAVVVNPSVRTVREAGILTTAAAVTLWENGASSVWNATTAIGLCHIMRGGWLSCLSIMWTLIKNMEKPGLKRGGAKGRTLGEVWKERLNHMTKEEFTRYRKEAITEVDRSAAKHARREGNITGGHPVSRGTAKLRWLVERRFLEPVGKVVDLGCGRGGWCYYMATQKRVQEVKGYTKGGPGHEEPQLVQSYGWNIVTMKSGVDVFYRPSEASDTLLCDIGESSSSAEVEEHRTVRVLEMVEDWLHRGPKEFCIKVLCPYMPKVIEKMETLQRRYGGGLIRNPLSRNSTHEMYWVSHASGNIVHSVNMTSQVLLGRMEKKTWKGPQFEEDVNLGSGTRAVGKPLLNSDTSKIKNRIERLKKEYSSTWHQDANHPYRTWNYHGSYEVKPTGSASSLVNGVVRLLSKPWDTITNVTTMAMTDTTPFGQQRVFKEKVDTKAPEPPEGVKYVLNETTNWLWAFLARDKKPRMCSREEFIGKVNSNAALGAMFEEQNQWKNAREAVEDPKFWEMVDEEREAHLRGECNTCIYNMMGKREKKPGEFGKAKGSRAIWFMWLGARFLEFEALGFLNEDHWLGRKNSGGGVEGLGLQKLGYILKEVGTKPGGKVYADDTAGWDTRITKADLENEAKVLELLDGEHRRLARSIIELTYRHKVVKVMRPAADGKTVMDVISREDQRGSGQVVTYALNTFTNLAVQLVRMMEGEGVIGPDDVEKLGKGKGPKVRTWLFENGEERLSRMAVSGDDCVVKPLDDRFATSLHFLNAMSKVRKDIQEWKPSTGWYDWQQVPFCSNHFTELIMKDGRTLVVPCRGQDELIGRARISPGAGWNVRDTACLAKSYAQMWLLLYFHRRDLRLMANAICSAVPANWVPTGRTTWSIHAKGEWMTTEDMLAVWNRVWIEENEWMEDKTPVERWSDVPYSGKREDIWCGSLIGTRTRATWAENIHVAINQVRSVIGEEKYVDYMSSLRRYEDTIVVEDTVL

[3] = target: T3, DEF1, fragment of DENV E protein containing 1-184 aa (Dengue virus 3, strain Sri …, UniProt Q6YMS4); assay: as above
T3 construct: envelope protein E of dengue virus 3 strain Sri Lanka/1266/2000 (genome AY099336.1), residues 1-184; numbers count on: the E protein (cut product of the polyprotein); Cloned into pET32 (BamHI/XhoI); the vector may add further linker and tag residues; source: E. coli BL21(DE3), purified (lysis buffer with 8 M urea, Ni-IMAC Sepharose)

[4] = target: T4, TEF1, fragment of TBEV E protein containing 1-187 aa (Tick-borne encephalitis virus, strain …, UniProt Q01299); assay: far-Western, overlay or dot blot
T4 construct: source: E. coli BL21(DE3), purified (lysis buffer with 8 M urea, Ni-IMAC Sepharose)

Measured: binding result

B1: 10H10 monoclonal antibody (antibody, V domains shown)
VH: VKLEESGGGLVKPGGSLKLSCAASGFSFSDYYMYWVRQTPEKRLEWVATISDGGSHTSYRDSVKGRFTISRDNGKNNLYLQMSSLKSEDTAMYYCVRGAYWGQGTLVTVSS
VL: not shown
notes: also called 10H10 mAb; 10H10 antibody
binds: all assays above
